Source: patent publication US20210302435A1 (SEATTLE CHILDREN S HOSPITAL D B A SEATTLE CHILDREN S …, published 2021)
One block for each binder: values may come before it.

What was measured:
[1] = target: T1, IDUA 218 signature peptide (IDUA 218-230); assay: immuno-SRM, mAb on Protein G magnetic beads, peptide capture from PBMC digest
T1 construct: Endogenous tryptic peptide from digested DBS, PBMC or buccal swab samples; An internal standard version of the same peptide (1.25 fmol) was captured alongside it; also called first IDUA signature peptide
T1 peptide: LGGPGDSFHTPPR

[2] = target: T2, IDUA 462 signature peptide (IDUA 462-474); assay: as above
T2 construct: Endogenous tryptic peptide from digested DBS, PBMC or buccal swab samples; An internal standard version of the same peptide (1.25 fmol) was captured alongside it; also called second IDUA signature peptide
T2 peptide: GVPPGPGLVYVTR

binding result [1]: binds
B1: anti-IDUA 218 monoclonal antibody (antibody, V domains shown)
VH: QVQLQQPGTELVKPGASVKLSCKASGYTFTRYWMHWVKQRPGQGLEWIGEINPSNGGTNYNEKFKNKATLNVDKSSSTAYMQLSSLTSEDSAVYYCTLAMDYWGQGTSVTVSS
VL: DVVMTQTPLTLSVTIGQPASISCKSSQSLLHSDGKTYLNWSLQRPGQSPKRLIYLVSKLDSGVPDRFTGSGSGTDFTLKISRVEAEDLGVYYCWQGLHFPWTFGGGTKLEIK
notes: Used as a monoclonal antibody coated on Protein G magnetic beads (1 ug per assay)

binding result [2]: binds
B2: anti-IDUA 462 monoclonal antibody (antibody, V domains shown)
VH: EVQLQQSGAELVKPGASVKLSCTASGFNIKDTYMHWVNQRPEQGLEWIGRIDPANGNTKYGPKFQGKATITADTSSNTAYLQLSSLTSEDTAVYYCAQTARAPFAYWGQGTLVTVSA
VL: DIVITQDEVSNPVTSGESVSISCRSSKSLLYKDGKTYLNWFLQRPGQSPQLLVYWMSTRASGVSDRFSGSGSGTDFTLKISRVKAEDVGMYYCQQVVEYPFTFGTGTKLEIK
notes: Used as a monoclonal antibody coated on Protein G magnetic beads (4 ug per assay)
